Reference: US9050374B2, “Inhibitors against endosomal/lysosomal enzymes” (UNIVERSITY COURT OF THE UNIVERSITY OF DUNDEE, priority 2011, dated 2015)
“Also recorded” adds a separate entry of the source. Values belong to the molecule of their own block, whether it stands above or below them. Where a SMILES comes first, the peptide text is derived from it. [ ]: non-standard residue; d: D form. The star is where a group is joined. Sta = CC(C)C[C@H](N)[C@@H](O)CC(=O)O; Isovaleryl = CC(C)CC(=O)*

How the values were obtained:
[1] = cited from earlier work
[2] = Solubility in aqueous media; type: physicochemical; details: applicant's own observation
Cathepsin D and E = details: read-out: Ki for inhibition of Cathepsin D and E; cited from earlier work
[3] = system: endo-lysosomal proteases of purified lysosomes from mouse macrophages; assay: In vitro digest of apo-HRP with purified macrophage lysosomes; type: biochemical; details: SDS-PAGE
Procedure: Lysosomes isolated from bone-marrow derived macrophages using a Percoll density-gradient fractionation (400 ng/μL, 3.6 μL) were resuspended in assay buffer (50 mM Citrate, pH 4.5, 0.5% Triton X-100; 59 μL) Inhibitor (70 μM; 12 μL in PBS+5% DMSO) was added and the mixture incubated for 15 minutes. Protein substrate (1 mg/mL in PBS, 9 μL) was added to the mixture and the reaction was incubated at 37° C. At the indicated timepoints 20 μL of the reaction mixture was removed and boiled with LDS-sample buffer and analysed by SDS-PAGE.

COS-7 cells, EGFr = assay: Effect on EGF receptor downregulation and EGF signalling (Western blot); type: cell-based
Procedure: COS7 cells growing in 12-well tissue culture plates were preincubated for 1 hour with or without cystatin C (0.35 mg/ml) or CPI (0.32 mg/ml) and then stimulated with 100 ng/ml EGF for the times shown. The cells were scraped from the well in 50 μl lysis buffer containing 50 mM Tris, 150 mM NaCl, 1 mM EGTA, 1 mM EDTA, 1% NP40 plus protease inhibitors (Roche, Miniprotease tablet). […] The blot was then stripped and reprobed for phosphor-Erk (p42/44 MAP kinase; Cell signalling) and as as loading control, Rsk2 (Santa Cruz) with appropriate secondary antibodies. The signals were quantitated using ImageJ analysis software.

AEP = molecular target: T1, AEP (Homo sapiens, UniProt Q99538); details: via a distinct binding site; read-out: Ki for inhibition of AEP; cited from earlier work
T1 sequence (Q99538 18-323): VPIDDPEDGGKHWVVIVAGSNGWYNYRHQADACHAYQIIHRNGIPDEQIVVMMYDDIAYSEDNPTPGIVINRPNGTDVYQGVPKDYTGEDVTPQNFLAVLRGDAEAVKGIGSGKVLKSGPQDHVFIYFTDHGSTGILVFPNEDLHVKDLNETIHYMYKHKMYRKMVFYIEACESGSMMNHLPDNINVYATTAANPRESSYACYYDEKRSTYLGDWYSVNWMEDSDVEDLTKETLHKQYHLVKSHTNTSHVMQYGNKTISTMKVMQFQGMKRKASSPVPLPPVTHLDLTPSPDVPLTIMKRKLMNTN

mouse Cathepsin L = molecular target: T2, mouse Cathepsin L (Mus musculus, UniProt P06797); assay: Inhibition studies of recombinant Cathepsin L; type: biochemical; details: compared among mutants R77C, L117C, T102C; 5 ng Cathepsin L/well
T2 construct: purchased R&D systems
T2 sequence (P06797 114-333 limits assumed): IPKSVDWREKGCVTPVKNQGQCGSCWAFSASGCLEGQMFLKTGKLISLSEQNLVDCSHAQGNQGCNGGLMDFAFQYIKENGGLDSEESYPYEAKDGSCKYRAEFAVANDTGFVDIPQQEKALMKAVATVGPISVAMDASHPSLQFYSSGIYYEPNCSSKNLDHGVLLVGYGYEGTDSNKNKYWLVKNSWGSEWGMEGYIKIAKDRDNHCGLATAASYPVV
Procedure: All protease inhibition studies were carried out as described previously^7-9 on a FLUOstar Optima Fluorimeter (BMG) with 360 nm excitation and 460 nm emission wavelength filters as described previously.^1-2,9-10 Recombinant Cathepsin D and Cathepsin S were purchased from R&D Systems.
The mixture was gently shaken at room temperature for 5 minutes prior to the addition of Z-Leu-Arg-AMC (40 μM in assay buffer, made from a 1 mM DMSO Stock solution). 7-amino-4-methylcoumarin release was measured by fluorescence spectroscopy over time. Initial rates were plotted against inhibitor concentration^11.

Molecule: CC(C)CC(=O)N[C@H](C(=O)N[C@H](C(=O)N[C@@H](CC(C)C)[C@@H](O)CC(=O)N[C@@H](C)C(=O)N[C@@H](CC(C)C)[C@@H](O)CC(=O)O)C(C)C)C(C)C [pepstatin A] (Isovaleryl-VV[Sta]A[Sta]-OH)
solubility in aqueous media, in words [1]: virtual insolubility in aqueous media
water solubility, in words [2]: insolubility; also recorded: very insoluble
Ki (Cathepsin D and E): 0.1 nM
stabilization of apo-HRP against lysosomal degradation ([3]; FIG. 9, listed as pepstatin): little or no stabilization

B1: cystatin C: naturally occurring 14 kDa protein that inhibits PLCPs and AEP (protein, listed as Homo sapiens)
chain: MAGPLRAPLLLLAILAVALAVSPAAGSSPGKPPRLVGGPMDASVEEEGVRRALDFAVGEYNKASNDMYHSRALQVVRARKQIVAGVNYFLDVELGRTTCTKTQPNLDNCPFHDQPHLKRKAFCSFQIYAVPWQGTMTLSKSTCQDA
modifications: Cystatin C
EGFr level / downregulation after EGF challenge (COS-7 cells, EGFr; 1 hour preincubation, 100 ng/ml EGF up to 90 min, Western blot): suppressed EGFr downregulation but not to the same extent as CPI
activation of MAP kinases Erk1/2 (check for inhibitor toxicity) (COS-7 cells, EGFr; COS-7 cells stimulated with EGF): normally
Ki (AEP): 0.2 nM
stabilization of apo-HRP against lysosomal degradation ([3]; FIG. 9, listed as Cystatin C): appears to protect a fragment only
stabilization of apo-HRP against lysosomal degradation ([3]; FIG. 9, listed as cystatin): little or no stabilization

inhibitory properties of cystatin C mutants (mouse Cathepsin L): most favourable inhibitory properties
B2: T102C: cystatin C mutant with threonine 102 replaced by cysteine, C-terminal 6His-tag (protein)
chain: SSPGKPPRLVGGPMDASVEEEGVRRALDFAVGEYNKASNDMYHSRALQVVRARKQIVAGVNYFLDVELGRTTCTKCQPNLDNCPFHDQPHLKRKAFCSFQIYAVPWQGTMTLSKSTCQDAHHHHHH
